US20060205032

T1: recombinant human STAT1 (Biosource), P42224
T1 chain: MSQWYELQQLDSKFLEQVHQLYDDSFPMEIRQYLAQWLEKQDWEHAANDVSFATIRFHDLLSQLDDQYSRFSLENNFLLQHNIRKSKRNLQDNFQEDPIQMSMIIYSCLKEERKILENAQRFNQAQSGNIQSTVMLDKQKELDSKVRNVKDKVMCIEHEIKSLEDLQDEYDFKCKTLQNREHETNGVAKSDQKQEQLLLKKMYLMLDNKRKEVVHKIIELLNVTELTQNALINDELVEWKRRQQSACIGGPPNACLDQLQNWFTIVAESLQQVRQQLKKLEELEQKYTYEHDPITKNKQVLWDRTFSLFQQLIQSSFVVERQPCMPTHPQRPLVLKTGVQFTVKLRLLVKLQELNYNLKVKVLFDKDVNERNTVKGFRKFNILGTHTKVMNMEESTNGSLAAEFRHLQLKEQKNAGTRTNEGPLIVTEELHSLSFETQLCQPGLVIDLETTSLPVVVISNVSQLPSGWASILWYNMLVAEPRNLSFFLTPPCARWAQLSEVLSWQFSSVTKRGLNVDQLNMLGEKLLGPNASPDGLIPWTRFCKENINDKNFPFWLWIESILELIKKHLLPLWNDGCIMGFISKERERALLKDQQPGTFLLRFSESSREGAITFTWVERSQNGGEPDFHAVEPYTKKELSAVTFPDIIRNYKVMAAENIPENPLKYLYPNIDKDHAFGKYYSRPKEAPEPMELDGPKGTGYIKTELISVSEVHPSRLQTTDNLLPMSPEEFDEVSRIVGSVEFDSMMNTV

B1: GST-SLIM (bacterially expressed wild-type GST-hSLIM) (protein)
chain: MALTVDVAGPAPWGFRITGGRDFHTPIMVTKVAERGKAKDADLRPGDIIVAINGESAEGMLHAEAQSKIRQSPSPLRLQLDRSQATSPGQTNGDSSLEVLATRFQGSVRTYTESQSSLRSSYSSPTSLSPRAGSPFSPPPSSSSLTGEAAISRSFQSLACSPGLPAADRLSYSGRPGSRQAGLGRAGDSAVLVLPPSPGPRSSRPSMDSEGGSLLLDEDSEVFKMLQENREGRAAPRQSSSFRLLQEALEAEERGGTPAFLPSSLSPQSSLPASRALATPPKLHTCEKCSTSIANQAVRIQEGRYRHPGCYTCADCGLNLKMRGHFWVGDELYCEKHARQRYSAPATLSSRA
B2: GST-Δ52-hSLIM (protein)
chain: MALTVDVAGPAPWGFRITGGRDFHTPIMVTKVAERGKAKDADLRPGDIIVAINGESAEGMLHAEAQSKIRQSPSPLRLQLDRSQATSPGQTNGDSSLEVLATRFQGSVRTYTESQSSLRSSYSSPTSLSPRAGSPFSPPPSSSSLTGEAAISRSMDSEGGSLLLDEDSEVFKMLQENREGRAAPRQSSSFRLLQEALEAEERGGTPAFLPSSLSPQSSLPASRALATPPKLHTCEKCSTSIANQAVRIQEGRYRHPGCYTCADCGLNLKMRGHFWVGDELYCEKHARQRYSAPATLSSRA

Legend:
[1] = biological target: T1, recombinant human STAT1 (Biosource), …
[2] = biological target: UbcH5a (human recombinant E2), P51668
Chain of UbcH5a (human recombinant E2), P51668 (P51668 whole entry): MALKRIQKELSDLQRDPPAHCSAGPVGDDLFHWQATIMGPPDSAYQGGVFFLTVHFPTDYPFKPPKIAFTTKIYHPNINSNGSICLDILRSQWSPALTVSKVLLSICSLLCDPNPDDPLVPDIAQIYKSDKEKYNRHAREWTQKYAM

Protein | ubiquitination of STAT1 (ubiquitin transfer assay, Avidin-HRP blot) [1] | ubiquitination of WT-Δ52-hSLIM with different human E2 enzymes (Avidin-HRP blot) [2]
B1 | WT-SLIM mediates the ubiquitination of STAT1 and demonstrates strong E3 ligase activity towards both STAT1 and hSLIM | 
B2 | WT-Δ52-hSLIM demonstrates E3 ligase activity by transferring ubiquitin to a biologically relevant downstream substrate, STAT1 | WT-A52-hSLIM demonstrates preferential ubiquitination in the presence of UbcH5a
